Laboratory results from patent publication US20200216522A1 (DENALI THERAPEUTICS, published 2020).

T1: Peptide_045 (human)
T1 peptide: REPKKVAVVRTPPKS

T2: Peptide_040 (human)
T2 peptide: GYSSPGSPGTPGSRS

T3: Peptide_086 (human)
T3 peptide: ATLADEVSASLAKQG

T4: Peptide_015 (human)
T4 peptide: TAEDVTAPLVDEGAP

T5: Peptide_013 (human)
T5 peptide: SETSDAKSTPTAEDV

T6: Peptide_060 (human)
T6 peptide: NIKHVPGGGSVQIVY

T7: Peptide_058 (human)
T7 peptide: NVQSKCGSKDNIKHV

T8: Peptide_037 (human)
T8 peptide: TPPSSGEPPKSGDRS

T9: Peptide_034 (human)
T9 peptide: ANATRIPAKTPPAPK

T10: Peptide_007 (human)
T10 peptide: MHQDQEGDTDAGLKE

T11: Peptide_052 (human)
T11 peptide: VKSKIGSTENLKHQP

T12: Peptide_012 (human)
T12 peptide: SEEPGSETSDAKSTP

T13: Peptide_026 (human)
T13 peptide: RMVSKSKDGTGSDDK

T14: Peptide_005 (human)
T14 peptide: GDRKDQGGYTMHQDQ

T15: Peptide_014 (human)
T15 peptide: AKSTPTAEDVTAPLV

T16: Peptide_080 (human)
T16 peptide: SPVVSGDTSPRHLSN

T17: Peptide_059 (human)
T17 peptide: CGSKDNIKHVPGGGS

T18: Peptide_049 (human)
T18 peptide: SRLQTAPVPMPDLKN

T19: Peptide_083 (human)
T19 peptide: VSSTGSIDMVDSPQL

T20: Peptide_042 (human)
T20 peptide: PGSRSRTPSLPTPPT

T21: Peptide_008 (human)
T21 peptide: EGDTDAGLKESPLQT

T22: Peptide_028 (human)
T22 peptide: GSDDKKAKGADGKTK

T23: Peptide_066 (human)
T23 peptide: GNIHHKPGGGQVEVK

T24: Peptide_053 (human)
T24 peptide: GSTENLKHQPGGGKV

T25: Peptide_009 (human)
T25 peptide: AGLKESPLQTPTEDG

T26: Peptide_087 (human)
T26 peptide: TLADEVSASLAKQGL

T27: Peptide_062 (human)
T27 peptide: VQIVYKPVDLSKVTS

T28: Peptide_078 (human)
T28 peptide: TDHGAEIVYKSPVVS

T29: Peptide_016 (human)
T29 peptide: TAPLVDEGAPGKQAA

T30: Peptide_069 (human)
T30 peptide: SEKLDFKDRVQSKIG

T31: Peptide_041 (human)
T31 peptide: GSPGTPGSRSRTPSL

T32: Peptide_081 (human)
T32 peptide: GDTSPRHLSNVSSTG

T33: Peptide_010 (human)
T33 peptide: SPLQTPTEDGSEEPG

T34: Peptide_036 (human)
T34 peptide: PPAPKTPPSSGEPPK

T35: Peptide_051 (human)
T35 peptide: PDLKNVKSKIGSTEN

B1: murine anti-Tau hybridoma antibody 17G2.A1 (antibody, V domains shown)
VH: QVQLQQPGAELVGPGSSVKLSCKASGYTFINYWIDWMKQSPGQGLEWIGNIYPSDSESHYNQKFTDKATLTVDISSSTAYLQLSSLTSEDSAVYYCALYSKGYWGQGTSVTVSS
VL: DVLMTQTPLSLPVTLGDQASISCRSSQNIVHTNGNTYLEWYLQKPGQSPKLLIYKLSSRFSGVPDRFSGSGSGTDFTLKISRVEAEDLGVYYCFQGSHLPFTFGGGTKLEIKR
notes: mouse IgG from hybridoma; also called anti-Tau 17G2.A1
B2: chimeric IgG clone 1D10 (antibody, V domains shown)
VH: EVQLQQSGAELVRPGASVKLSCTASGFNIKDSLMHWMKQRPEQGLEWIGWIDPEDGETKYAPKFQDKATLTADTSSNAAYLQLSSLTSEDTAIYYCVRGDWDGGYWGQGTTLTVSS
VL: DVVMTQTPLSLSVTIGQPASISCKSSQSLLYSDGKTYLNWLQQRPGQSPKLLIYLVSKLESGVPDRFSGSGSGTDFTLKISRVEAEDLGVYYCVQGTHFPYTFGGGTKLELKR
notes: mouse-human chimeric IgG from HEK293

What was measured:
Test in all cases: peptide array
Peptide_045 = target: T1, Peptide_045
How it was run: (§1)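 Epitope mapping used slides carrying triplicate 15-residue peptides, offset by 5 aa, tiling full-length human Tau 2N4R. Chimeric IgG at 5 μg/mL or murine IgG at 30 μg/mL in 3% BSA-TBST (pH 7.5) bound for 2 h at RT; Alexa Fluor secondaries (568 or 647 nm channel) applied 1 h, then imaged.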

Peptide_040 = target: T2, Peptide_040
How it was run: as §1

Peptide_086 = target: T3, Peptide_086
How it was run: as §1

Peptide_015 = target: T4, Peptide_015
How it was run: as §1

Peptide_013 = target: T5, Peptide_013
How it was run: as §1

Peptide_060 = target: T6, Peptide_060
How it was run: as §1

Peptide_058 = target: T7, Peptide_058
How it was run: as §1

Peptide_037 = target: T8, Peptide_037
How it was run: as §1

Peptide_034 = target: T9, Peptide_034
How it was run: as §1

Peptide_007 = target: T10, Peptide_007
How it was run: as §1

Peptide_052 = target: T11, Peptide_052
How it was run: as §1

Peptide_012 = target: T12, Peptide_012
How it was run: as §1

Peptide_026 = target: T13, Peptide_026
How it was run: as §1

Peptide_005 = target: T14, Peptide_005
How it was run: as §1

Peptide_014 = target: T15, Peptide_014
How it was run: as §1

Peptide_080 = target: T16, Peptide_080
How it was run: as §1

Peptide_059 = target: T17, Peptide_059
How it was run: as §1

Peptide_049 = target: T18, Peptide_049
How it was run: as §1

Peptide_083 = target: T19, Peptide_083
How it was run: as §1

Peptide_042 = target: T20, Peptide_042
How it was run: as §1

Peptide_008 = target: T21, Peptide_008
How it was run: as §1

Peptide_028 = target: T22, Peptide_028
How it was run: as §1

Peptide_066 = target: T23, Peptide_066
How it was run: as §1

Peptide_053 = target: T24, Peptide_053
How it was run: as §1

Peptide_009 = target: T25, Peptide_009
How it was run: as §1

Peptide_087 = target: T26, Peptide_087
How it was run: as §1

Peptide_062 = target: T27, Peptide_062
How it was run: as §1

Peptide_078 = target: T28, Peptide_078
How it was run: as §1

Peptide_016 = target: T29, Peptide_016
How it was run: as §1

Peptide_069 = target: T30, Peptide_069
How it was run: as §1

Peptide_041 = target: T31, Peptide_041
How it was run: as §1

Peptide_081 = target: T32, Peptide_081
How it was run: as §1

Peptide_010 = target: T33, Peptide_010
How it was run: as §1

Peptide_036 = target: T34, Peptide_036
How it was run: as §1

Peptide_051 = target: T35, Peptide_051
How it was run: as §1

Row | Binder | binding result (Peptide_045) | binding result (Peptide_040) | binding result (Peptide_086) | binding result (Peptide_015) | binding result (Peptide_013) | binding result (Peptide_060) | binding result (Peptide_058) | binding result (Peptide_037) | binding result (Peptide_034) | binding result (Peptide_007) | binding result (Peptide_052) | binding result (Peptide_012) | binding result (Peptide_026) | binding result (Peptide_005) | binding result (Peptide_014) | binding result (Peptide_080) | binding result (Peptide_059) | binding result (Peptide_049) | binding result (Peptide_083) | binding result (Peptide_042) | other results
1 | B1 | no binding (tested: 30 ug/mL) | no binding (tested: 30 ug/mL) | no binding (tested: 30 ug/mL) | no binding (tested: 30 ug/mL) | no binding (tested: 30 ug/mL) | no binding (tested: 30 ug/mL) | no binding (tested: 30 ug/mL) | no binding (tested: 30 ug/mL) | no binding (tested: 30 ug/mL) | no binding (tested: 30 ug/mL) | no binding (tested: 30 ug/mL) | no binding (tested: 30 ug/mL) | no binding (tested: 30 ug/mL) | no binding (tested: 30 ug/mL) | no binding (tested: 30 ug/mL) | no binding (tested: 30 ug/mL) | no binding (tested: 30 ug/mL) | no binding (tested: 30 ug/mL) | no binding (tested: 30 ug/mL) | no binding (tested: 30 ug/mL) | binding result (Peptide_008): no binding (tested: 30 ug/mL); binding result (Peptide_028): no binding (tested: 30 ug/mL); binding result (Peptide_066): no binding (tested: 30 ug/mL); binding result (Peptide_053): no binding (tested: 30 ug/mL); binding result (Peptide_009): no binding (tested: 30 ug/mL); binding result (Peptide_087): no binding (tested: 30 ug/mL); binding result (Peptide_062): no binding (tested: 30 ug/mL); binding result (Peptide_078): no binding (tested: 30 ug/mL); binding result (Peptide_016): no binding (tested: 30 ug/mL); binding result (Peptide_069): no binding (tested: 30 ug/mL); binding result (Peptide_041): no binding (tested: 30 ug/mL); binding result (Peptide_081): no binding (tested: 30 ug/mL); binding result (Peptide_010): no binding (tested: 30 ug/mL); binding result (Peptide_036): no binding (tested: 30 ug/mL); binding result (Peptide_051): no binding (tested: 30 ug/mL)
2 | B2 | no binding (tested: 5 ug/mL) | no binding (tested: 5 ug/mL) | no binding (tested: 5 ug/mL) | no binding (tested: 5 ug/mL) | no binding (tested: 5 ug/mL) | no binding (tested: 5 ug/mL) | no binding (tested: 5 ug/mL) | no binding (tested: 5 ug/mL) | no binding (tested: 5 ug/mL) | no binding (tested: 5 ug/mL) | binds | no binding (tested: 5 ug/mL) | no binding (tested: 5 ug/mL) | no binding (tested: 5 ug/mL) | no binding (tested: 5 ug/mL) | no binding (tested: 5 ug/mL) | no binding (tested: 5 ug/mL) | no binding (tested: 5 ug/mL) | no binding (tested: 5 ug/mL) | no binding (tested: 5 ug/mL) | binding result (Peptide_008): no binding (tested: 5 ug/mL); binding result (Peptide_028): no binding (tested: 5 ug/mL); binding result (Peptide_066): no binding (tested: 5 ug/mL); binding result (Peptide_053): no binding (tested: 5 ug/mL); binding result (Peptide_009): no binding (tested: 5 ug/mL); binding result (Peptide_087): no binding (tested: 5 ug/mL); binding result (Peptide_062): no binding (tested: 5 ug/mL); binding result (Peptide_078): no binding (tested: 5 ug/mL); binding result (Peptide_016): no binding (tested: 5 ug/mL); binding result (Peptide_069): no binding (tested: 5 ug/mL); binding result (Peptide_041): no binding (tested: 5 ug/mL); binding result (Peptide_081): no binding (tested: 5 ug/mL); binding result (Peptide_010): no binding (tested: 5 ug/mL); binding result (Peptide_036): no binding (tested: 5 ug/mL); binding result (Peptide_051): binds
